1 molecule from PMC8586017, “CENP-V is required for proper chromosome segregation through interaction with spindle microtubules in mouse oocytes” (Nature Communications, 2021) can be followed below.

The Kd is the concentration at which binding is half-saturated.

This test addresses taxol-stabilised ATTO 647N-labelled microtubules (UniProt P02550 1-451, ATTO 647N label (which chain and residues not stated) | ATTO 647N label (which chain and residues not stated)). The test can be described thus: TIRF microscopy, saturation binding curve; CENP-V-eGFP titrated onto surface-bound taxol-stabilised ATTO 647N-labelled microtubules; BRB80 (80 mM PIPES pH 6.8, 1 mM MgCl2, 1 mM EGTA) with 10 µM taxol, casein, DTT; 25 °C, 15 m equilibration; GFP intensity per micrometer of at least 100 microtubules per condition; Hill (cooperative) fit. As to conditions: both partners purified.

B1: His6-CENP-V-eGFP (natural protein, UniProt Q9CXS4 1-252, looked up)
chain: MRRTRSAVATGPREQRRSGATGGLSGGESRAQRSRSRTRAGAGGGGGAVGPQPSAKPRPKPPPRAQEAAAEEPPPAVTPAASVSALDLGEQRERWETFQKRQRLSFEGAAKLLLDTFEYQGLVKHTGGCHCGAVRFEVWASADLHIFDCNCSICKKKQNRHFIVPASRFKLLKGAESITTYTFNTHKAQHTFCKRCGVQSFYTPRSNPGGFGIAPHCLDEGTVRSVVTEEFNGSDWERAMKEHKTIKNMSKE
notes: CENP-V (centromere protein V); also called CENP-V-GFP; recombinant CENP-V-eGFP
B1 yielded a Kd of 53.2 ± 4.5 nM.
